# Values quoted from earlier work as cited in publication PMC11139829.
# Values joined by “and” are separate entries in the source; they are usually repeats but may differ in a detail not shown here. Identical values can stand only once. Like-named read-outs stand apart in the source and are kept apart here.
# Key:
# [1] = molecular target: β-clamp (Escherichia coli) (UniProt P0A988); assay: SPR
# [2] = molecular target: β-clamp (Escherichia coli) (UniProt P0A988)
# [3] = molecular target: β-clamp (Escherichia coli) (UniProt P0A988); assay: Fluorescence
# [4] = molecular target: β-clamp (Escherichia coli) (UniProt P0A988); assay: ITC
# [5] = molecular target: β-clamp (Escherichia coli) (UniProt P0A988); assay: SEC
# [6] = molecular target: β-clamp (Escherichia coli) (UniProt P0A988); assay: ITC; remark: listed apart in the source
# [7] = molecular target: β-clamp (Escherichia coli) (UniProt P0A988); assay: ITC; remark: listed apart in the source
# Sequence of UniProt P0A988 (P0A988 whole entry): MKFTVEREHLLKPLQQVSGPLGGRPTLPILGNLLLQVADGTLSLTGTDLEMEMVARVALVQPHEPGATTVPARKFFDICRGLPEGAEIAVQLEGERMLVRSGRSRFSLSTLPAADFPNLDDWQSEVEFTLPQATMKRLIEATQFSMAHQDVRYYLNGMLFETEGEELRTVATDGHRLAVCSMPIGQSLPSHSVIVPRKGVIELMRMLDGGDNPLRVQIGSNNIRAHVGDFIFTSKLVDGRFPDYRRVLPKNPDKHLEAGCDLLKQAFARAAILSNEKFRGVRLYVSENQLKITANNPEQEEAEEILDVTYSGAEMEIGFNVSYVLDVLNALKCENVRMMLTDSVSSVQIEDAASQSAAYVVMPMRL
# Sequence of Pol III α (P10443 whole entry): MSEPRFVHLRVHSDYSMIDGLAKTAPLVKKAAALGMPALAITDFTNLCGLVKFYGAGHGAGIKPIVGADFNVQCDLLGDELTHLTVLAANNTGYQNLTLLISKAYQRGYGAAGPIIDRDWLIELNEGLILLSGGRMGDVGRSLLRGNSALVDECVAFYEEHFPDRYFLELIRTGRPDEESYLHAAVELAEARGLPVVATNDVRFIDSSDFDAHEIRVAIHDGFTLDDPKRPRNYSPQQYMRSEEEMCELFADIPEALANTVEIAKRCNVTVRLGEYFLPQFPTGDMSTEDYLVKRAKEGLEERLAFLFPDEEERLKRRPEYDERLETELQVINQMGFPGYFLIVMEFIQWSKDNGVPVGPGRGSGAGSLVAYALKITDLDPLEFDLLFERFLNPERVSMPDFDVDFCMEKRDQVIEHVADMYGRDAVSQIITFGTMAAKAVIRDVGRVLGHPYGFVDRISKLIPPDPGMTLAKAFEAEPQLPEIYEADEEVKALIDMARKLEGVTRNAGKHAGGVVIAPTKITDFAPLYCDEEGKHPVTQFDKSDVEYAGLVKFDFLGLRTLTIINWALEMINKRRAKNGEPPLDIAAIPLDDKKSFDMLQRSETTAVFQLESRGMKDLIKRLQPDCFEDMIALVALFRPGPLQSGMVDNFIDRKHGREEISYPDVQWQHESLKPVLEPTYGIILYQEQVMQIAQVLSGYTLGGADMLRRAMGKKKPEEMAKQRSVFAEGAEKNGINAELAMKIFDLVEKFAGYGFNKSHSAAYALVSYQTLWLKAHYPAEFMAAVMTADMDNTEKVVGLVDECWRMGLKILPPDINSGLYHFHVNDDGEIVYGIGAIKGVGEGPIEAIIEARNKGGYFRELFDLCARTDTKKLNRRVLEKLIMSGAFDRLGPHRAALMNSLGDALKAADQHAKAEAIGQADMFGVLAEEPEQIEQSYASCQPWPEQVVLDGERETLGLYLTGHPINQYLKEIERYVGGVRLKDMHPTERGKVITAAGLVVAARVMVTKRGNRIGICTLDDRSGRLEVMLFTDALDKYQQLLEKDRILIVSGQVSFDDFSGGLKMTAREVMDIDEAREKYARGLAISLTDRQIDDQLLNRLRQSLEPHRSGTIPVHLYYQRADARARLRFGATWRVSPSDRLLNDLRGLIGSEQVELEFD
Kd [1],Kd [3],Kd [4] [nM],Substance,Kd [5] [nM],further results
,3500 nM,1700,Pol II CBM peptide,,
,3200 nM and 3000 nM,1420,Pol III α C-terminal CBM peptide,,Kd [6]: 3060 nM; Kd [7]: 3950 nM
210000 nM,,,Pol III ε peptide,,

# Further lines, the substance ahead of its results:
Substance,Kd [1],Kd [3],Kd [4] [nM],Kd [5] [nM],further results
Pol II (from UniProt P21189),31.6 nM,,,,Kd [2]: 120 nM
Pol III core (from UniProt P10443),,51 nM and 50 nM,,< 5,
Pol III α (from UniProt P10443),108 nM and 800 nM,110 nM,1500,1200,
Pol III α + ε (from UniProt P10443),,,,300,
Pol III α internal CBM peptide,2700 nM,,> 15000,,
